The text below walks through data of patent US20220380471A1 (US Dept. of Health and Human Services, published 2022).

Numbering of substitutions follows the chain as printed.

The target in one assay is T1, rat B7H3-His (rat, UniProt Q7TPB4 29-244, limits assumed).
T1 construct: not shown: His tag
T1 sequence (looked up): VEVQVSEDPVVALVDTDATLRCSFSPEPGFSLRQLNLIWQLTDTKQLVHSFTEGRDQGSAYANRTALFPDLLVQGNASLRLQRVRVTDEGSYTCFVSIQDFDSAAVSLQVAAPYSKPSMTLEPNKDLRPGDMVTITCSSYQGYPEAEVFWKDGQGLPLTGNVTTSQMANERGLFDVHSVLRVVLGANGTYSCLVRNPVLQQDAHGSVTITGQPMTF
The assay can be described thus: ELISA, purified VHH. The essentials:
(§1)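 Camel VHH nanobodies were isolated by phage panning on recombinant B7H3-Fc and then purified. Their binding to immobilised recombinant proteins (B7H3 fusion proteins and non-B7H3 control proteins) was measured by ELISA and recorded as the ELISA signal.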

In another assay the target is T2, hB7H3-His (human, UniProt Q5ZPR3 29-461, limits assumed).
T2 construct: not shown: His tag
T2 sequence (looked up): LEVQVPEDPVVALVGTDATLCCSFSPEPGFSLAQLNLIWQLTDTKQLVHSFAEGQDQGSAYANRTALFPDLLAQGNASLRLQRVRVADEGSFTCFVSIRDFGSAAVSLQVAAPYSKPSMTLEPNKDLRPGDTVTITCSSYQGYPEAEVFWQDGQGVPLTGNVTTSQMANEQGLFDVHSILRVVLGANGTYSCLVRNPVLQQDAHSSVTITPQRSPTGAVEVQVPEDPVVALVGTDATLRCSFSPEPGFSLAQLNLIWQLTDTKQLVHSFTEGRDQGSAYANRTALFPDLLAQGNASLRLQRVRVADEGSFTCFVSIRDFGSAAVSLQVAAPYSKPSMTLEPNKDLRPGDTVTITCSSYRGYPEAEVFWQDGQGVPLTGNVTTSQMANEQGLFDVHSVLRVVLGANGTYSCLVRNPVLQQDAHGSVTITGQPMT
The assay can be described thus: ELISA, purified VHH. The essentials:
as §1

The next assay concerns the target Non-relevant antigen. Nature of the assay: ELISA, purified VHH. Put shortly: as §1
The target of assay [1] is T3, recombinant human B7H3-Fc protein (human, UniProt Q5ZPR3 29-466, limits assumed).
T3 construct: 154 kDa non-reduced, 77 kDa reduced; also called hB7H3-Fc; not shown: Fc part
T3 sequence (looked up): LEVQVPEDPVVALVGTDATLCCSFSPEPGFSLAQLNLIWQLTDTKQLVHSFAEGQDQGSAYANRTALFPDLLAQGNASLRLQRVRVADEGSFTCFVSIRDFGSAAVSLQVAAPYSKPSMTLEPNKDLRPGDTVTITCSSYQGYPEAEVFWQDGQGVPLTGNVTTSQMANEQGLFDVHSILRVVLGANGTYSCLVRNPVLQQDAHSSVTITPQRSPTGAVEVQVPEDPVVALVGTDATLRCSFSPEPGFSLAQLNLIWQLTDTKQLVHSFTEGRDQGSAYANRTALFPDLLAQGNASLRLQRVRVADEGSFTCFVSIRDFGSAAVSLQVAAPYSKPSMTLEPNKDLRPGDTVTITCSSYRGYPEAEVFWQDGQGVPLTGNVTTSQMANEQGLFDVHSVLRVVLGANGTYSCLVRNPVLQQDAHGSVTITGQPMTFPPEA
The assay can be described thus: ELISA, purified VHH. The essentials: as §1

A further assay concerns the target T4, mouse B7H3-His (mouse, UniProt Q8VE98 29-244, limits assumed).
T4 construct: also called recombinant mouse B7H3-His protein; not shown: His tag
T4 sequence (looked up): T1 sequence (looked up) with R33A, A62S, D131N, L156V, M214L
Nature of the assay: phage ELISA, cross-species. The essentials: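 Camel VHH phage were panned on recombinant B7H3-Fc protein for 3 rounds, using libraries from eight individual camels. Binding of the selected phage to immobilised antigens (human and other-species B7H3 or control proteins) was measured by phage ELISA and recorded as the ELISA signal.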

Assay [2] concerns the target T3, recombinant human B7H3-Fc protein. The assay can be described thus: BLI (Octet), human B7H3-Fc; same value printed for 660, 528, 264, 198, 66 and 33 nM. As to the method: FIG. 13: Kinetics of RWG4 on human B7H3-Fc. The association/dissociation properties of RWG4 were measured on the Octet system (Creative Biolabs) using recombinant human B7H3-Fc protein.
(§2) The association/dissociation properties of RWC4 and RWG4 were measured on the Octet system (Creative Biolabs) using either recombinant human B7H3-Fc protein or recombinant mouse B7H3-His protein.

Assay [3] has the same target. The assay can be described thus: BLI (Octet), human B7H3-Fc; same value printed for 660, 132 and 26.4 nM. As to the method: FIG. 12: Kinetics of RWC4 on human B7H3-Fc. The association/dissociation properties of RWC4 were measured on the Octet system (Creative Biolabs) using recombinant human B7H3-Fc protein.
as §2

B1: RWB12 (VHH)
VHH: QVQLVESGGGSVQVGGSLRLSCAASGFTYNSYSVGWFRQAPGKEREGVAAINSGGSSTYYAASVKGRFTISRDNAKNTVYLQMNSLKPEDTAMYYCAARSPSPLTFQTRTLREDSYNYWGQGTQVTVSS
notes: Camel VHH; tag not described; also called camel antibody RWB12
For the molecule B1, the ELISA signal with rat B7H3-His turned out to be 0.0574; in the assay with hB7H3-His, 0.686; with Non-relevant antigen, 0.0495; in assay [1], 0.568.

B2: RWG8 (VHH)
VHH: DVQLVESGGGLVQPGGSLRLSCAASGFTFSRYWMGWFRQAPGKGVEWVSTINSGGGSTYYADSVKGRFTISRDNAKNTLYLQLNNLKTEDTAMYYCAKEQWRTGSRGQGTQVTVSS
notes: Camel VHH; tag not described; also called camel antibody RWG8
Regarding B2, the ELISA signal with rat B7H3-His turned out to be 0.0696; in the assay with hB7H3-His it was 1.04; in the assay with Non-relevant antigen it was 0.0562; in assay [1] it was 0.641; with mouse B7H3-His, 2.47.

B3: RWG4 (VHH)
VHH: QVQLVQSGGGLVQPGGSLRLSCAASGFTFSVYWFYWVRQAPRQGLEWVSTIASNGSTYYSDSVKGRFTISRDNAKNTVYLQMNSLKPEDTAVYYCVSDPDYYSDYERAYKFWAQGTQVTVSS
notes: Camel VHH; tag not described; also called camel antibody RWG4
For B3, the Kd in assay [2] was 6.94 nM. Moreover, the koff in assay [2] amounted to 6.34e-05 s⁻¹. Moreover, in assay [2], the kon came to 9130 M⁻¹ s⁻¹. Moreover, the ELISA signal is 1.5 in the assay with rat B7H3-His; 2.55 in the assay with hB7H3-His; 0.0541 in the assay with Non-relevant antigen; 2.54 in assay [1]; 0.0665 with mouse B7H3-His.

B4: RWC4 (VHH)
VHH: EVQLVESGGGSVQAGGSLRLSCVASEDSTSAMCMGWFRQAPGKEREGVACINPTGEVTWYGDSVKGRFTISRDTVKKIVYLQMNSLKPEDTAMYYCAARVTYGGDWSTDTDYEYWGQGTQVTVSS
notes: Camel VHH; tag not described; also called camel antibody RWC4
On to B4, for which the ELISA signal with hB7H3-His stood at 2.44. The ELISA signal in the assay with Non-relevant antigen came to 0.0719. Besides, the ELISA signal in assay [1] was 2.02. Also, in assay [3], the Kd was determined as 3.8 nM, the koff was found to be 0.000101 s⁻¹ and the kon worked out at 26500 M⁻¹ s⁻¹.
